What was measured:
[1] = target: T1, BCMA on BCMA-positive NCI-H929, ARP-1 and U266B1 cells (human, UniProt Q02223 1-184); assay: FACS, NCI-H929 cells
T1 construct: they are human cell lines; also called B-cell maturation antigen; TNFRSF17
T1 sequence: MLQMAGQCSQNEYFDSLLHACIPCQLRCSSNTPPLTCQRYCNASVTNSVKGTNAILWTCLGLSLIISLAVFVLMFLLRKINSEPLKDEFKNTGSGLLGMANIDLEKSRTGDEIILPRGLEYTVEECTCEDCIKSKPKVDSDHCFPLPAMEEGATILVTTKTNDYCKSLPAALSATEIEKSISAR
Protocol: (§1) Variants for which sufficient protein was purified in secondary screening were tested in a fluorescence-activated cell sorting (FACS) cell-binding assay. […] 6-12 point dilutions of anti-BCMA variants starting from concentrations of about 100-200 nM antibody were dispensed into each well using a BioMekFX (Beckman Coulter). Cells were then incubated on ice for 1 hr, washed with FACS buffer and incubated for 1 hr on ice with […] FACS buffer containing […] Alexa647-conjugated Goat Anti-Human IgG dispensed using BioMekFX (Beckman Coulter). Cells were then washed 2× with FACS buffer and fixed for 10 minutes in […] PBS with 2% PFA prior to fluorescence detection. Samples were acquired using a Beckton Dickinson LSRII FACS. Geometric Mean Fluorescence Intensity of BCMA antibody binding was analyzed using FlowJo® software (Trec Star, Inc.).

[2] = target: cynomolgus BCMA on 293T-cynoBCMA cells (cynomolgus, UniProt Q02223 1-184 (human entry)); assay: FACS, 293T-cynoBCMA cells
Chain of cynomolgus BCMA on 293T-cynoBCMA cells (Q02223 other isoform, or with tags, fused parts or gaps): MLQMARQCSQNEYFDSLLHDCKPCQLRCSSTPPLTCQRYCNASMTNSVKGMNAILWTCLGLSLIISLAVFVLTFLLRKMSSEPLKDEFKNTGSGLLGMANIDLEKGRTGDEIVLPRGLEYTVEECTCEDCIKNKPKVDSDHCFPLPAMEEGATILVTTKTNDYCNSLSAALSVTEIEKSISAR
Protocol: as §1

[3] = target: T1, BCMA on BCMA-positive NCI-H929, ARP-1 …; assay: cell-based or functional assay

B1: SRP2137-A05 (antibody, IgG1, V domains shown)
VH: EVQLVESGGGLVQPGGSLRLSCAASGFNINNSYIHWVRQAPGKGLEWVGWIYPYSGYTNYADSVKGRFTISADTSKNTAYLQMNSLRAEDTAVYYCARDYGPWYGTGVLDYWGQGTLVTVSS
VL: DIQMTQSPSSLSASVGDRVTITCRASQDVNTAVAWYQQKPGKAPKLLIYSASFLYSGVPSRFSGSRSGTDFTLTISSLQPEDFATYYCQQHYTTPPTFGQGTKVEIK
notes: IgG1 with trastuzumab light chain, His/FLAG-tagged, cell-free expressed; also called Antibody 14
[1]
  Bmax (MFI): 2690 MFI
[2]
  Bmax (MFI): 1910 MFI

B2: SRP2213-A06 (antibody, IgG1, V domains shown)
VH: EVQLVESGGGLVQPGGSLRLSCAASGFNISSYAIHWVRQAPGKGLEWVGVISPYGGYTEYADSVKGRFTISADTSKNTAYLQMNSLRAEDTAVYYCARDFYDRYSTYVLDYWGQGTLVTVSS
VL: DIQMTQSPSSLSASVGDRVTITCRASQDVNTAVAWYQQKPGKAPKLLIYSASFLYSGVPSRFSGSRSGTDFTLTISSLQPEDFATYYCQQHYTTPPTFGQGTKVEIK
notes: IgG1 with trastuzumab light chain, His/FLAG-tagged, cell-free expressed; also called Antibody 23
[1]
  Bmax (MFI): 2510 MFI
[2]
  Bmax (MFI): 3620 MFI

B3: SRP2265-F02 (antibody, IgG1, V domains shown)
VH: EVQLVESGGGLVQPGGSLRLSCAASGFNISAPGIHWVRQAPGKGLEWVGFINPAGGYTDYADSVKGRFTISADTSKNTAYLQMNSLRAEDTAVYYCARDYIRQYWTYVLDYWGQGTLVTVSS
VL: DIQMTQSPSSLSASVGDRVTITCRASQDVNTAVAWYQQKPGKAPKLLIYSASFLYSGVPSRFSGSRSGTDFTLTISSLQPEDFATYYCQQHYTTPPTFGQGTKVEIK
notes: IgG1 with trastuzumab light chain, His/FLAG-tagged, cell-free expressed; also called Antibody 4
[1]
  Bmax (MFI): 12200 MFI
  Kd: 4.5 nM
[3]
  ARP-1, SC225-conjugated 2° antibody cell killing, EC50: 1.6 nM
  ARP-1, SC225-conjugated 2° antibody cell killing, Span: 62%
  U266B1, SC225-conjugated 2° antibody cell killing, EC50: 1 nM
  U266B1, SC225-conjugated 2° antibody cell killing, Span: 62%
[2]
  Bmax (MFI): 21800 MFI
  Kd: 5 nM

B4: SRP2265-D05 (antibody, IgG1, V domains shown)
VH: EVQLVESGGGLVQPGGSLRLSCAASGFNISGPGIHWVRQAPGKGLEWVGFINPAAGYTDYADSVKGRFAISADTSKNTAYLQMNSLRAEDTAVYYCARDFVYAYWTYVLDYWGQGTLVTVSS
VL: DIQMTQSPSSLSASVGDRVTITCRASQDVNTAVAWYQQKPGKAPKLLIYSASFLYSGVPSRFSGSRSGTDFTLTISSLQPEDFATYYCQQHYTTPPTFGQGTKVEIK
notes: IgG1 with trastuzumab light chain, His/FLAG-tagged, cell-free expressed; also called Antibody 10
[1]
  Bmax (MFI): 10900 MFI
  Kd: 4 nM
[3]
  ARP-1, SC225-conjugated 2° antibody cell killing, EC50: 1 nM
  ARP-1, SC225-conjugated 2° antibody cell killing, Span: 50%
  U266B1, SC225-conjugated 2° antibody cell killing, EC50: 0.8 nM
  U266B1, SC225-conjugated 2° antibody cell killing, Span: 53%
[2]
  Bmax (MFI): 21300 MFI
  Kd: 3.8 nM

B5: SRP2265-A09 (antibody, IgG1, V domains shown)
VH: EVQLVESGGGLVQPGGSLRLSCAASGFNIIGPGIHWVRQAPGKGLEWVGFINPAGGYTDYADSVKGRFTISADTSKNTAYLQMNSLRAEDTAVYYCARDYVYNYWTYVLDYWGQGTLVTVSS
VL: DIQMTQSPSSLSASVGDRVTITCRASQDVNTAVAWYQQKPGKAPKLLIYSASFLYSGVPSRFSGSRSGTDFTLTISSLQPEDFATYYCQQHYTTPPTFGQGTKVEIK
notes: IgG1 with trastuzumab light chain, His/FLAG-tagged, cell-free expressed; also called Antibody 6
[1]
  Bmax (MFI): 11700 MFI
  Kd: 5.2 nM
[3]
  ARP-1, SC225-conjugated 2° antibody cell killing, EC50: 1.9 nM
  ARP-1, SC225-conjugated 2° antibody cell killing, Span: 55%
  U266B1, SC225-conjugated 2° antibody cell killing, EC50: 0.9 nM
  U266B1, SC225-conjugated 2° antibody cell killing, Span: 58%
[2]
  Bmax (MFI): 23800 MFI
  Kd: 6.2 nM

B6: SRP2265-A06 (antibody, IgG1, V domains shown)
VH: EVQLVESGGGLVQPGGSLRLSCAASGFNIYRSGIHWVRQAPGKGLEWVGFINPAGGYTDYADSVKGRFTISADTSKNTAYLQMNSLRAEDTAVYYCARDYVPQYWTYVLDYWGQGTLVTVSS
VL: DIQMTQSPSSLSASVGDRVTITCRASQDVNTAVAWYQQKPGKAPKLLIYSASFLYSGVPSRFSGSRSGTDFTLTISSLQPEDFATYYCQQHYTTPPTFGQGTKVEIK
notes: IgG1 with trastuzumab light chain, His/FLAG-tagged, cell-free expressed; also called Antibody 13
[1]
  Bmax (MFI): 11100 MFI
[3]
  ARP-1, SC225-conjugated 2° antibody cell killing, EC50: 2.9 nM
  ARP-1, SC225-conjugated 2° antibody cell killing, Span: 68%
  U266B1, SC225-conjugated 2° antibody cell killing, EC50: 1.3 nM
  U266B1, SC225-conjugated 2° antibody cell killing, Span: 59%
[2]
  Bmax (MFI): 22100 MFI

B7: SRP2265-F03 (antibody, IgG1, V domains shown)
VH: EVQLVESGGGLVQPGGSLRLSCAASGFNIRGPGIHWVRQAPGKGLEWVGFISPAAGYTDYADSVKGRFTISADTSKNTAYLQMNSLRAEDTAVYYCARDFVQSYWTYVLDYWGQGTLVTVSS
VL: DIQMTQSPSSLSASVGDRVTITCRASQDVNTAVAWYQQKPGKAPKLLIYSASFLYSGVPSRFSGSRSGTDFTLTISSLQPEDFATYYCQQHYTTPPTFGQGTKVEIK
notes: IgG1 with trastuzumab light chain, His/FLAG-tagged, cell-free expressed; also called Antibody 7
[1]
  Bmax (MFI): 12500 MFI
  Kd: 5.3 nM
[3]
  ARP-1, SC225-conjugated 2° antibody cell killing, EC50: 2.3 nM
  ARP-1, SC225-conjugated 2° antibody cell killing, Span: 57%
  U266B1, SC225-conjugated 2° antibody cell killing, EC50: 0.8 nM
  U266B1, SC225-conjugated 2° antibody cell killing, Span: 56%

B8: SRP2265-E02 (antibody, IgG1, V domains shown)
VH: EVQLVESGGGLVQPGGSLRLSCAASGFNIYVSGIHWVRQAPGKGLEWVGFINPAGGYTDYADSVKGRFTISADTSKNTAYLQTNSLRAEDTAVYYCARDYVYQYWTYVLDYWGQGTLVTVSS
VL: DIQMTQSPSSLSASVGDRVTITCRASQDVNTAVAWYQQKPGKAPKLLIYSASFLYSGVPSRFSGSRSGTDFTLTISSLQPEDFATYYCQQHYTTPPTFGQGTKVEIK
notes: IgG1 with trastuzumab light chain, His/FLAG-tagged, cell-free expressed; also called Antibody 8
[1]
  Bmax (MFI): 11600 MFI
[3]
  ARP-1, SC225-conjugated 2° antibody cell killing, EC50: 1.5 nM
  ARP-1, SC225-conjugated 2° antibody cell killing, Span: 55%
  U266B1, SC225-conjugated 2° antibody cell killing, EC50: 0.8 nM
  U266B1, SC225-conjugated 2° antibody cell killing, Span: 53%
[2]
  Bmax (MFI): 26700 MFI
  Kd: 5.1 nM
